Assay results published in patent publication US20050214212A1.
Substitutions are numbered along the chain they refer to. Values belong to the binder of their own block, whether it stands above or below them.

Assays:
[1] = target: CD44v6 (human CD44 variant isoform containing exon v6) on human tumour cells (human) (UniProt P16070); test: immunoreactivity assay, 131I-labelled MAb on glutaraldehyde-fixed UM-SCC-11B cells, experiment 2
[2] = target: CD44v6 (human CD44 variant isoform containing exon v6) on human tumour cells (human) (UniProt P16070); test: immunoreactivity assay on fixed UM-SCC-11B cells, linear extrapolation to infinite antigen excess, experiment 2
[3] = target: CD44v6 (human CD44 variant isoform containing exon v6) on human tumour cells (human) (UniProt P16070); test: immunoreactivity assay, 131I-labelled MAb on glutaraldehyde-fixed UM-SCC-11B cells, experiment 3
[4] = target: CD44v6 (human CD44 variant isoform containing exon v6) on human tumour cells (human) (UniProt P16070); test: immunoreactivity assay of clinical 99mTc-/186Re-MAG3-labelled BIWA 4 batches on fixed UM-SCC-11B cells
[5] = target: glutathione-S-transferase fusion protein containing domains v3-v10 of human CD44 (human) (UniProt P16070); test: ratio of affinities from SPR on GST/CD44v3-v10
[6] = target: glutathione-S-transferase fusion protein containing domains v3-v10 of human CD44 (human) (UniProt P16070); test: SPR (BIAcore 2000), GST/CD44v3-v10 immobilised on CM5, MAb 8-67 nM injected
[7] = target: CD44v6 (human CD44 variant isoform containing exon v6) on human tumour cells (human) (UniProt P16070); test: immunoreactivity assay on fixed UM-SCC-11B cells, linear extrapolation to infinite antigen excess, experiment 3
[8] = target: CD44v6 (human CD44 variant isoform containing exon v6) on human tumour cells (human) (UniProt P16070); test: immunoreactivity assay, 186Re-MAG3-labelled MAb on fixed UM-SCC-11B cells
[9] = target: glutathione-S-transferase fusion protein containing domains v3-v10 of human CD44 (human) (UniProt P16070); test: SPR (BIAcore 2000), GST/CD44v3-v10 immobilised on CM5
[10] = target: CD44v6 (human CD44 variant isoform containing exon v6) on human tumour cells (human) (UniProt P16070); test: immunoreactivity assay, 125I-labelled MAb on glutaraldehyde-fixed UM-SCC-11B cells, experiment 3

Sequence of glutathione-S-transferase fusion protein containing domains v3-v10 of human CD44 (human) (P16070 267-604): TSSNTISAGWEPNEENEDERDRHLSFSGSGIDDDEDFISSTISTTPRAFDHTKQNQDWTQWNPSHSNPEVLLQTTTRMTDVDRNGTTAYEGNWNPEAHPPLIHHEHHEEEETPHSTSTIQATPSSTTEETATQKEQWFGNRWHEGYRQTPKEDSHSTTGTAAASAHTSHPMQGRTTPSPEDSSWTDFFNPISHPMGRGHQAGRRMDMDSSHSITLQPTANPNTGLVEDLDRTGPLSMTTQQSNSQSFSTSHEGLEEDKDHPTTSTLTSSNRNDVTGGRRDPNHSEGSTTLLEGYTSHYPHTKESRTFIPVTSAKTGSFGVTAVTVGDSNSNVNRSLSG

- Binding to 5 × 10^6 cells (%) [1]: 77.4%
- Binding Extrapolated (%) (immunoreactive fraction) [2]: 82.3%
- Binding to 5 × 10^6 cells (%) [3]: 77.3%
- immunoreactive fraction [4]: > 80%
- fold lower affinity than cMAb BIWA 2 [5]: 14 fold
- fold lower affinity than hMAb BIWA 8 [5]: 4 fold
- Kd [6]: 3.4 nM
- koff [6]: 0.00022 s⁻¹
- kon [6]: 65000 M⁻¹ s⁻¹
- Binding Extrapolated (%) (immunoreactive fraction) [7]: 74.5%
- immunoreactive fraction [8]: > 75%
- Kd relative to murine BIWA 1 [9]: 10.5
B1: hMAb BIWA 4 (bivatuzumab), humanised CDR-grafted antibody without framework modifications (antibody, human IgG1, kappa, V domains shown)
VH: EVQLVESGGGLVKPGGSLRLSCAASGFTFSSYDMSWVRQAPGKGLEWVSTISSGGSYTYYLDSIKGRFTISRDNAKNSLYLQMNSLRAEDTAVYYCARQGLDYWGRGTLVTVSS
VL: EIVLTQSPATLSLSPGERATLSCSASSSINYIYWYQQKPGQAPRLLIYLTSNLASGVPARFSGSGSGTDFTLTISSLEPEDFAVYYCLQWSSNPLTFGGGTKVEIKR

- Kd [6]: 0.84 nM
- koff [6]: 6.3e-05 s⁻¹
- kon [6]: 75000 M⁻¹ s⁻¹
- Binding Extrapolated (%) (immunoreactive fraction) [7]: 92.1%
- immunoreactive fraction [8]: > 75%
- Binding to 5 × 10^6 cells (%) [10]: 91.8%
- Kd relative to murine BIWA 1 [9]: 2.6
B2: hMAb BIWA 8, humanised CDR-grafted antibody with framework modifications (antibody, human IgG1, kappa, V domains shown)
VH: B1 VH
VL: B1 VL with Y35L, L45I
